Changes are numbered by the printed parent chain.
B1: WRAIR-2039 LALA-PG (human IgG1 with the triple Fc mutation LALA-PG) (antibody, V domains shown)
VH: QVQLVQSGAEVKKPGASVKVSCKVSGYMLIELSMHWVRQAPGKGLEWMGGFDPEDAETIYAQEFQGRVTMTEDTSTDTAYMELSSLRSEDTAVYYCTTGPAVTNRPADYWGPGTLVTVSS
VL: QSVLTQPPSVSGAPGQRVTISCTGSSSNIGASYDVHWYQQLPGTAPKLLIYANSNRPSGVPDRFSGSKSGTSASLAITGLQAEDEADYYCQSYDSSLSYSVVFGGGTKLTVL
B2: WRAIR-2173 LALA-PG (human IgG1 with the triple Fc mutation LALA-PG) (antibody, V domains shown)
VH: QVQLQESGPGLVKPSETLSLTCSVSGDSISSSDYSWGWIRQPPGKGLEWIGTIYYIKNTYYNPSLRSRVTLSVDTSKNLFSLKLSSVTAADTAVYYCARERPPFDVVVVPAARPYNWFDPWGLGTLVIVSS
VL: B1 VL with T5M, S32G, A52G, S54N, E83D, Y99G, V101K
B3: WRAIR-2025 LALA-PG (human IgG1 with the triple Fc mutation LALA-PG) (antibody, V domains shown)
VH: QVHLVQSGAEVKKPGASVKVSCKVSGYTLVELSVHWVRQAPAKGLEWIGGFDPEDGETIYAQKFQGRVTMTEDTSTDTAYMELTNLRSEDTAVYYCVTSQPFVSPNWFDPWGQGTLVTVSS
VL: QSALTQPASVSGSPGQSITISCTGTSRDVGAYNYVSWYQQHPGKAPKLMIYEVTTRPSGVSNRFSGSKSGNTASLTISGLQAEDEADYYCSSYTGSRTLVFGTGTKVTVL
B4: WRAIR-2123 LALA-PG (human IgG1 with the triple Fc mutation LALA-PG) (antibody, V domains shown)
VH: EVQLVESGGGVVQPGRSLRLSCAASGFTFSSYAMHWVRQAPGKGLEWVAVLSYDGSNKYNADSVKGRFTISRDNSKNTLYLQMNSLRVEDTAMYYCARDGVSVTMVRGVIGPLCDYWGQGTLVTVSS
VL: not shown
B5: WRAIR-2004 LALA-PG (human IgG1 with the triple Fc mutation LALA-PG) (antibody, V domains shown)
VH: QVQLVQSGAEVKKPGASVKVSCKASGYTFTGYYMHWVRQAPGQGLEWMGRINPSSGGTNYAQKFQGRVTMTRDTSISTAYMELSSLRSDDTAVYYCATDGDDGENWFDPWGQGTLVIVSS
VL: DIQMTQSPSSLSASVGDRVTITCRASQGISSWLAWYQQKPEKAPKSLIYAASSLQSGVPSRFSGSGSGTDFTLTISSLQPEDFATYYCQQYNSYPYTFGQGTKLEIK

molecular target: SARS-CoV-2 S protein, full length (IL1/2020), on 293F-Spike-S2A cells (SARS-CoV-2, USA/IL1/2020 (S identical …, UniProt P0DTC2)); experiment: flow cytometry on cells; details: one partner purified

Does B1 bind?
Result: binds

Does B2 bind?
Result: binds

Does B3 bind?
Result: binds

Does B4 bind?
Result: binds

Does B5 bind?
Result: binds

Source: paper PMC8642242 (Nature Immunology, 2021)
